The target in test [1] is HPV18-E6 (4C-4S) version of E6 fused with His-tag (human papillomavirus type 18 (HPV18)) (UniProt P06463).
The target is the same in test [2]. The source holds these as a separate data set.

Sequence of UniProt P06463 (P06463 whole entry, the tested form may be a part): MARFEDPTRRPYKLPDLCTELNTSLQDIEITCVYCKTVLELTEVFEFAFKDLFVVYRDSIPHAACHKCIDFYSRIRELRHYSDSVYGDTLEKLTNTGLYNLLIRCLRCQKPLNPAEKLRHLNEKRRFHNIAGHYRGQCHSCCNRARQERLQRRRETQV

Substance “untagged USP46 (from UniProt P62068 1-366) (enzyme)” registered a deubiquitinase activity on Ub-AMC of the E6:USP46 complex purified on Ni-NTA and concentrated (USP46-UAF1 complex in the same assay: 0.83 FU/min) in test [1] of 0.78 FU/min. For the same substance, the deubiquitinase activity of recombinant USP46 (singly purified His-USP46, 70 nM) on the ubiquitin substrate after simple mixing with recombinant HPV-E6 (4 uM); USP46 alone 0.39 FU/min in test [2] came out at 0.58 FU/min.

For the origin of these results see publication PMC8750077.
